Laboratory results published in patent EP3831849A1 (LamKap Bio beta AG, dated 2021).
Like-named read-outs stand apart in the source and are kept apart here. Values belong to the binder of their own block, whether it stands above or below them.

Key:
[1] = target: T1, human CD47 expressed at the surface of MKN45 cells (human, UniProt Q08722 19-323); assay: inhibition of SIRPα mouseFc binding to CD47 on MKN45 cells; imaging (CX5)
T1 construct: whole, on cells; also called IAP

[2] = target: T2, human CEACAM5 expressed on MKN-45 wt cells (human, UniProt P06731 35-702); assay: cell-based or functional assay
T2 sequence: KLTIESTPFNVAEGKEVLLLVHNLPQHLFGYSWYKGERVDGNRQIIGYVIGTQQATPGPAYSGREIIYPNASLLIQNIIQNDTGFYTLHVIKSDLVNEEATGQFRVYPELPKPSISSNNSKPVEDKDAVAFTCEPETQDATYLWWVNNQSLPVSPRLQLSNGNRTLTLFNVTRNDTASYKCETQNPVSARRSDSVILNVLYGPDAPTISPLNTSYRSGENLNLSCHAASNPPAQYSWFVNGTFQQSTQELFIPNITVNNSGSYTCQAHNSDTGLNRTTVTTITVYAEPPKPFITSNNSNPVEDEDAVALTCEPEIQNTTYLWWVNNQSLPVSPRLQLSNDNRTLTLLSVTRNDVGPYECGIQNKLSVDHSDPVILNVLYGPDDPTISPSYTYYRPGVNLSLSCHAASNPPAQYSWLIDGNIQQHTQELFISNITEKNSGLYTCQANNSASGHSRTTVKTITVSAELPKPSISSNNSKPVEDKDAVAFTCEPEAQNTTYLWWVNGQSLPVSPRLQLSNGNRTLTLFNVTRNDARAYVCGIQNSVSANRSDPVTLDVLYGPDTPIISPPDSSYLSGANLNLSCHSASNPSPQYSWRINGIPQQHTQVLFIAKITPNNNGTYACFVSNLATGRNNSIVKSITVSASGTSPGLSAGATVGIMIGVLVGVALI

[3] = target: T2, human CEACAM5 expressed on MKN-45 wt …; assay: flow cytometry on MKN-45 wt cells (express CEACAM5 and CD47)
[4] = target: T3, biotinylated recombinant human CEACAM5 (human, UniProt P06731 35-685, biotin on the C-terminal Avitag); assay: reference mAb in the competition ELISA on biotinylated human CEACAM5
T3 construct: also called CD66e; not shown: C-terminal Avitag plus hexa-histidine tag, human Fc or mouse Fc
T3 sequence: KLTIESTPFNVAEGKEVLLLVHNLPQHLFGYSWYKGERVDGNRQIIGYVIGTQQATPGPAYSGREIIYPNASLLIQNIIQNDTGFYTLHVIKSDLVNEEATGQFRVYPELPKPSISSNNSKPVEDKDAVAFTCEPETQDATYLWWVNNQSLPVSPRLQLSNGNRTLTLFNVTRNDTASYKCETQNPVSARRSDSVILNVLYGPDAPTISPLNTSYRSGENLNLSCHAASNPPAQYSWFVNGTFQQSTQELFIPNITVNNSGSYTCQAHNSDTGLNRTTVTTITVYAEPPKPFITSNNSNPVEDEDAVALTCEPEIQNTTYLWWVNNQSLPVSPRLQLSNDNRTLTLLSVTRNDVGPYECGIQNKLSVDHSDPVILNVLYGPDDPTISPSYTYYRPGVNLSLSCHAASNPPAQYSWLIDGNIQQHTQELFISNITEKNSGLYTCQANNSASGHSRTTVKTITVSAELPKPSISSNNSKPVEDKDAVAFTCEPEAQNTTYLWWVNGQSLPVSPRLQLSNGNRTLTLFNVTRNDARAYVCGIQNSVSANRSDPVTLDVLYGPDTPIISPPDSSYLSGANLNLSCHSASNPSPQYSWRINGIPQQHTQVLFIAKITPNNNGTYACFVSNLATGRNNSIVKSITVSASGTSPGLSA

[5] = target: T2, human CEACAM5 expressed on MKN-45 wt …; assay: cell-based or functional assay; remark: listed apart in the source
[6] = target: T3, biotinylated recombinant human CEACAM5; assay: ELISA; biotinylated recombinant protein on streptavidin plate; bivalent mAb titrated
[7] = target: T4, recombinant cynomolgus monkey CEACAM5 (cynomolgus monkey (macaca fascicularis)); assay: as above
T4 construct: also called cyno CEACAM5; cynomolgus CEACAM5

[8] = target: T3, biotinylated recombinant human CEACAM5; assay: as above; remark: listed apart in the source

T1 sequence (Q08722 19-323): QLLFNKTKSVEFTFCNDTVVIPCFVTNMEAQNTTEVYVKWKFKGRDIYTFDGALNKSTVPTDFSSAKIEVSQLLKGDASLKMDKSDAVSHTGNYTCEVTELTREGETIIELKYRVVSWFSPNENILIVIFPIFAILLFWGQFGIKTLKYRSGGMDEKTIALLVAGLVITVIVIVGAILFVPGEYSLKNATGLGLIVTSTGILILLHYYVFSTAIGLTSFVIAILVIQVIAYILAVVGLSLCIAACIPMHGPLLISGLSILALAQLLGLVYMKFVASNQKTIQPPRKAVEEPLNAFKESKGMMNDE

B1: K2AC57 (bispecific antibody, human IgG1, kappa, lambda)
heavy: not shown
light 1: QSVLTQPPSVSGAPGQRVTISCTGSSSNIINNSYVHWYQQLPGTAPKLLIYAPSNRPSGVPDRFSGSKSGTSASLAITGLQAEDEADYYCQSYDTRFVVPTPVFGGGTKLTVLGQPKAAPSVTLFPPSSEELQANKATLVCLISDFYPGAVTVAWKADSSPVKAGVETTTPSKQSNNKYAASSYLSLTPEQWKSHRSYSCQVTHEGSTVEKTVAPTECS
light 2: not shown
notes: 6 is full length
- IC50 [1]: 1.1 nM
- EC50 (µg/mL) of phagocytosis [2]: 1.6 µg/mL
- EC50 [3]: 91 nM
- Emax (MFI) [3]: 2.26e+06 MFI

B2: SM3E (antibody, V domains shown)
VH: QVKLEQSGAEVVKPGASVKLSCKASGFNIKDSYMHWLRQGPGQRLEWIGWIDPENGDTEYAPKFQGKATFTTDTSANTAYLGLSSLRPEDTAVYYCNEGTPTGPYYFDYWGQGTLVTVSS
VL: ENVLTQSPSSMSVSVGDRVNIACSASSSVPYMHWLQQKPGKSPKLLIYLTSNLASGVPSRFSGSGSGTDYSLTISSVQPEDAATYYCQQRSSYPLTFGGGTKLEIK
notes: also called anti-CEACAM5 antibody SM3E
- binding result [4]: binds

B3: K2AC50 (bispecific antibody, human IgG1, kappa, lambda)
heavy: not shown
light 1: QSALTQPASVSGSPGQSITISCTGTSSDVYEFRLVSWYQQHPGKAPKLMIYFDSLRPSGVSNRFSGSKSGNTASLTISGLQAEDEADYYCSSWDKFGYAFNSVFGGGTKLTVLGQPKAAPSVTLFPPSSEELQANKATLVCLISDFYPGAVTVAWKADSSPVKAGVETTTPSKQSNNKYAASSYLSLTPEQWKSHRSYSCQVTHEGSTVEKTVAPTECS
light 2: not shown
- EC50 (µg/mL) of phagocytosis [5]: 0.07 µg/mL

B5: SAR (antibody, V domains shown)
VH: EVQLVESGGGLVQPGGSLRLSCAASGFVFSSYDMSWVRQAPGKGLEWVSYISSGGGITYYADSVKGRFTISRDNSKNTLYLQMNSLRAEDTAVYYCAAHYFGSSGPFAYWGQGTLVTVSS
VL: DIQMTQSPSSLSASVGDRVTITCRASENIFSYLAWYQQKPGKAPKLLIYNTRTLQSGVPSRFSGSGSGTDFTLTISSLQPEDFATYYCQHHYGTPFTFGQGTKLEIK
notes: also called mAb derived from Mab2_VLg5VHg2
- binding result [4]: binds

B7: K2AC49 (bispecific antibody, human IgG1, kappa, lambda)
heavy: not shown
light 1: QSVLTQPPSVSAAPGQKVTISCSGSSSNIFDSGVSWYQQLPGTAPKLLIYNHNERPSGIPDRFSGSKSGTSATLGITGLQTGDEADYYCGTWDFPPSRFVFGGGTKLTVLGQPKAAPSVTLFPPSSEELQANKATLVCLISDFYPGAVTVAWKADSSPVKAGVETTTPSKQSNNKYAASSYLSLTPEQWKSHRSYSCQVTHEGSTVEKTVAPTECS
light 2: not shown
- EC50 (µg/mL) of phagocytosis [5]: 0.3 µg/mL

Continued, values first:

- EC50 [6]: 0.09 nM
- EC50 [7]: 0.05 nM
- EC50 [8]: 0.09 nM
B4: AC50 (antibody, human IgG1, lambda, V domains shown)
VH: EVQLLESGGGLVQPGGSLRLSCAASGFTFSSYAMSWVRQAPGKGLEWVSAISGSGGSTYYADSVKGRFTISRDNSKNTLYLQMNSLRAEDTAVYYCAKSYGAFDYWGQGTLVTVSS
VL: QSALTQPASVSGSPGQSITISCTGTSSDVYEFRLVSWYQQHPGKAPKLMIYFDSLRPSGVSNRFSGSKSGNTASLTISGLQAEDEADYYCSSWDKFGYAFNSVFGGGTKLTVLG
notes: Bivalent IgG1 mAb; 6 carries the IgG1 Fc; also called CEACAM5/CEACAM6 mAb AC50

- EC50 [6]: 0.1 nM
- EC50 [7]: 0.03 nM
- EC50 [8]: 0.1 nM
B6: AC49 (antibody, human IgG1, lambda, V domains shown)
VH: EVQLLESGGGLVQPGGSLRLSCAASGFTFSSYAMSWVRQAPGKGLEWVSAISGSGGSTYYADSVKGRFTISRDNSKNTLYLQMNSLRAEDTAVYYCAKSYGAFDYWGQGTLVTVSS
VL: QSVLTQPPSVSAAPGQKVTISCSGSSSNIFDSGVSWYQQLPGTAPKLLIYNHNERPSGIPDRFSGSKSGTSATLGITGLQTGDEADYYCGTWDFPPSRFVFGGGTKLTVLG
notes: Bivalent IgG1 mAb; 6 carries the IgG1 Fc; also called CEACAM5/CEACAM6 mAb AC49
